This note sets out measurements from the supplement of paper PMC10201428.

± gives the standard deviation of the averaged measurements.

The data set concerns VchCAST RNA-guided transposition machinery (E. coli BL21(DE3) host, lacZ target). Description: relative integration efficiency (T-LR orientation) vs wild-type transposon end (log2 (normalized fold change)); transposon end mutated: right end (5 bp flank + 75 bp right end); higher = more efficient transposition. Summed up: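 A T7-driven effector plasmid encoding a CRISPR array, tniQ-cas8-cas7-cas6 and tnsA-tnsB-tnsC was co-transformed into E. coli BL21(DE3) together with a pUC57 mini-transposon donor holding barcoded pools of 1549 left-end or 1849 right-end variants. Transformants were plated with 0.1 mM IPTG at 37°C for 18 h. Illumina sequencing of PCR-amplified input plasmids and genomic integration junctions gave barcode abundances, and relative integration efficiency is their output/input fold change, normalised to reference barcodes and log-transformed.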
For “ACATTTGTTGATACAACCATAAAATGATAAAATGACCCATAAATTGATAATTATCACACCCATAAATTGATATTGCCTCTGATCATAGTCAGACCAACATTGCTACGACCCGTATTCGCACCGACAC”, the “relative integration efficiency (log2)” value was determined as 0.143 ± 0.81.
For the sequence “ACATTTGTTGATACCACCATCAAATGATAATTACACCCCTACATTGATAATTATCACACCCAATTTAACTATAACGCTCTGATCATAGTCAGACCAACATTGCTACGACCCGTATTCGCACCGACAC”, the “relative integration efficiency (log2)” value is -2.42 ± 0.59.
With “ACATTTGTTGATACATGGTTAAAATGATAATTACACCCATAAATTGATAATTATCACACCCATAAATTGATATTGCCTCTGATCATAGTCAGACCAACATTGCTACGACCCGTATTCGCACCGACAC”, the “relative integration efficiency (log2)” value is -2.05 ± 0.37.
Regarding “ACATTTGTTGATACAACCATAAAATGATAATTACACCCATAAATTCATCATTATCACCCCCAATTTAACTATAACGCTCTGATCATAGTCAGACCAACATTGCTACGACCCGTATTCGCACCGACAC”, the “relative integration efficiency (log2)” value was 1.45 ± 0.16.
For “ACATTTGTTGATACAACCATACCCGGATAATTACACCCATAAATTGATAATTATCACACCCATAAATTGATATTGCCTCTGATCATAGTCAGACCAACATTGCTACGACCCGTATTCGCACCGACAC” the value was -4.39 ± 0.99; for “ACATTTGTTGATACAACCATAAAATCATAATTACCCCCATCAATTGATAATTATCCCACCCAATTTAACTATAACGCTCTGATCATAGTCAGACCAACATTGCTACGACCCGTATTCGCACCGACAC”, -1.33 ± 0.49; for “ACATTTGTTGATACAACCATAAAATGATAATTACACCCATAACGGTCGCCGGCGACACAAACGCCCGGTCGCGGTAAGAGGATCATAGTCAGACCAACATTGCTACGACCCGTATTCGCACCGACAC”, 0.674 ± 0.11.
As for “ACATTTGTTGATACAACCATAAAATGATAATTACACCCATAAATTGATAATTATCACACCCATAAATTGATATTGAAGAGGATCATAGTCAGACCAACATTGCTACGACCCGTATTCGCACCGACAC”, the figure is -0.000932 ± 0.33; as for “TGATTTGTTGATACAACCATAAAATGATAATTACACCCATAAATTGATAATTATCACACCCATAAATTGATATTGCCTCTGATCATAGTCAGACCAACATTGCTACGACCCGTATTCGCACCGACAC”, 0.163 ± 0.18.
As to “ACATTTGTGGATACAACCATAAAATGATAATTACACCCATAAATGGATAATTATCACACCCAATTTAACTATAACGCTCTGATCATAGTCAGACCAACATTGCTACGACCCGTATTCGCACCGACAC”, the “relative integration efficiency (log2)” value came to 2.14 ± 0.031.
Turning to “ACATTTGTTGATACAACCATAAAATGATAATTACACCCATAAATTGATAATTATCACACCACTAAATTGATATTGCCTCTGATCATAGTCAGACCAACATTGCTACGACCCGTATTCGCACCGACAC”, the “relative integration efficiency (log2)” value stood at 2.35 ± 0.27.
Regarding “ACATTTGTCAACCATAAAATGATAATTACACCCATAAATTGATAATTATCACACCCATAAATTGATATTGCCTCTGATCATAGTCAGACCAACATTGCTACGACCCGTATTCGCACCGACACTGACT”, the “relative integration efficiency (log2)” value is -4.8 ± 0.66.
With “ACATTTGTAAAAAAAACCATACGTTGATTTTACGAAACCATACGCTGAAATAATCACAACCATACATTGAAATTGCCTCTGATCATAGTCAGACCAACATTGCTACGACCCGTATTCGCACCGACAC”, the “relative integration efficiency (log2)” value is -4.99 ± 1.
For “ACATTTGTTCATACAACCATAAAATGATAATTACACCCATAAATTGATCATTATCACACCCAATTTAACTATAACGCTCTGATCATAGTCAGACCAACATTGCTACGACCCGTATTCGCACCGACAC”, the “relative integration efficiency (log2)” value worked out at 0.604 ± 0.17.
As to “ACATTTGTTGATACAACCATTAAATGATAATTACACCCATTAATTGATAATTATCACACCCATTAATTGATATTGCCTCTGATCATAGTCAGACCAACATTGCTACGACCCGTATTCGCACCGACAC”, the “relative integration efficiency (log2)” value was -0.0993 ± 0.43.
With “ACATTTGTTGATACAACCATAAAAAGATAATTACACCCATAAATTGATAATTGTGACACCGAATTTAACTATAACGCTCTGATCATAGTCAGACCAACATTGCTACGACCCGTATTCGCACCGACAC”, the “relative integration efficiency (log2)” value amounted to 2.38 ± 0.082.
For “ACATTTGTTGATACAACCATAAAATGATAATTACACCCATAAATTGATAATTATCTGTGCCATAAATTGATATTGCCTCTGATCATAGTCAGACCAACATTGCTACGACCCGTATTCGCACCGACAC” the value was 2.04 ± 0.1; for “ACATTTGTTGATACAACAATAAAATGATAATTACACCAATAAATTGATAATTATCACACCAATAAATTGATATTGCCTCTGATCATAGTCAGACCAACATTGCTACGACCCGTATTCGCACCGACAC”, -0.547 ± 0.67.
As to “ACATTTGTGGATACAACCATAAAATGATAATTACACCCATAAATGGATCATTATCACACCCAATTTAACTATAACGCTCTGATCATAGTCAGACCAACATTGCTACGACCCGTATTCGCACCGACAC”, the “relative integration efficiency (log2)” value is 1.01 ± 0.2.
With “ACATTTGTTGATACAACCATAAAATGATTTAATCACCCATAAATTGATTTAATTCACACCCATAAATTGATTAACGCTCTGATCATAGTCAGACCAACATTGCTACGACCCGTATTCGCACCGACAC”, the “relative integration efficiency (log2)” value was -0.00841 ± 0.34.
On to “ACATTTGTTGATACAACCATAAAATGATAATTACACCCATAAATTGATAATTATCAGTGGGTATTTAACTATAACGCTCTGATCATAGTCAGACCAACATTGCTACGACCCGTATTCGCACCGACAC”, for which the “relative integration efficiency (log2)” value was 2.65 ± 0.1.
Turning to “ACATTTGTTGATACAACCATAAAATGATAATTACTCTGATCATCACCCATAAATTGATAATTATCACACCCATAAATTGATATTGCAGTCAGACCAACATTGCTACGACCCGTATTCGCACCGACAC”, the “relative integration efficiency (log2)” value is -2.15 ± 0.28.
For the sequence “ACATTTGTTCATACAACCCTAAAATGATAATTACACCCATAAATTGATCATTATCACACCCAATTTAACTATAACGCTCTGATCATAGTCAGACCAACATTGCTACGACCCGTATTCGCACCGACAC”, the “relative integration efficiency (log2)” value is -1.36 ± 0.72.
Regarding “ACATTTGTTGATACAACCATAAAATGATAATTAGTGGGTATTTAACTATTAATTCACACCCATAAATTGATATTGCCTCTGATCATAGTCAGACCAACATTGCTACGACCCGTATTCGCACCGACAC”, the “relative integration efficiency (log2)” value was -3.02 ± 0.35.
Take “ACATTTGTTGATACAACCATAAAATGATAAAAACACCCATAAATTGATAATTATCACACCCATAAATTGATATTGCCTCTGATCATAGTCAGACCAACATTGCTACGACCCGTATTCGCACCGACAC”: the “relative integration efficiency (log2)” value was -0.253 ± 0.4.
For “ACATTTGTTCATACAACCATAAAATGATAATTACACCCATAAATGGATCATTATCACACCCAATTTAACTATAACGCTCTGATCATAGTCAGACCAACATTGCTACGACCCGTATTCGCACCGACAC”, the “relative integration efficiency (log2)” value was -0.503 ± 0.054.
Regarding “ACATTTGTTGATACACCCATAAATTGATAATTACACCCATAAATTGATATTGCTCACAACCATATATTGATATCTCCTCTGATCATAGTCAGACCAACATTGCTACGACCCGTATTCGCACCGACAC”, the “relative integration efficiency (log2)” value amounted to 0.128 ± 0.24.
For the sequence “ACATTTGTTGCGACAACCATAAAATGATAATTACACCCATAAATTGATAATTATCACACCCATAAATTGATATTGCCTCTGATCATAGTCAGACCAACATTGCTACGACCCGTATTCGCACCGACAC”, the “relative integration efficiency (log2)” value was -1.69 ± 0.07.
For “ACATTTGTTGATACCACCATAAAATGGTAATTACACCCATACATTGATAATTATCACACCCAATTTAACTATAACGCTCTGATCATAGTCAGACCAACATTGCTACGACCCGTATTCGCACCGACAC” the value was 0.455 ± 0.2; for “ACATTTGTTGATACAACCATAAAATGATAATTACAACCATAAAGTGATATTTATCAGTGGGTATTTAACTATAACGCTCTGATCATAGTCAGACCAACATTGCTACGACCCGTATTCGCACCGACAC”, 2.5 ± 0.1.
Regarding “ACATTTGTTGATACAACCATAAAATCATAATTACCCCCATCAATTGATAATTATCACACCCCATTTAACTATAACGCTCTGATCATAGTCAGACCAACATTGCTACGACCCGTATTCGCACCGACAC”, the “relative integration efficiency (log2)” value is -1.5 ± 0.28.
As for “ACATTTGTTGATACAACCATAAAGTGATATTTACAACCATAAGTTGATATTTTTCACAACCATATATTGATATCTCCTCTGATCATAGTCAGACCAACATTGCTACGACCCGTATTCGCACCGACAC”, the “relative integration efficiency (log2)” value worked out at 0.346 ± 0.17.
